This passage reports Binding (wt/variant) and Dissociation (wt/variant) results from patent US20090098103A1.

For one experiment, the target named is Human Recombinant TFPI (R&D Systems) (human) (UniProt P10646). Nature of the experiment: SPR (Biacore T100), TFPI on CM5 chip, 320 nM FVIIa + 620 nM sTF; 293-F cells.
Sequence of UniProt P10646 (P10646 29-282): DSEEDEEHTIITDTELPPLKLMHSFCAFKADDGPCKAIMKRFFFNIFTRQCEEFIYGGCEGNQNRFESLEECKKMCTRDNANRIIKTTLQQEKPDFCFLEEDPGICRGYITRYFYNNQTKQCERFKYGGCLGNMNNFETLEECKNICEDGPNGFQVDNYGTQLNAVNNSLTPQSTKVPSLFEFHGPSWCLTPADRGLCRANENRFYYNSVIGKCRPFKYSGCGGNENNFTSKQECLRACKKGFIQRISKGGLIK
As for “FVIIa variant CB558 K197E (from UniProt P08709 61-466) (enzyme)”, the Binding (wt/variant) came to 1.4 and the Dissociation (wt/variant) came out at 1.3.
The corresponding values for “FVIIa variant CB563 K199E (from UniProt P08709 61-466) (enzyme)” are 1.4 and 1.4.
As to “FVIIa variant CB592 M298Q (from UniProt P08709 61-466) (enzyme)”, the Binding (wt/variant) was 1.9 and the Dissociation (wt/variant) was determined as 1.8.
In the case of “FVIIa variant CB593 V158D/E296V/M298Q (from UniProt P08709 61-466) (enzyme)”, the Binding (wt/variant) is 0.8 and the Dissociation (wt/variant) turned out to be 0.8.
As for “FVIIa variant CB608 G237V (from UniProt P08709 61-466) (enzyme)”, the Binding (wt/variant) came out at 2.2 and the Dissociation (wt/variant) came to 1.8.
With “FVIIa variant CB609 K341Q (from UniProt P08709 61-466) (enzyme)”, the Dissociation (wt/variant) is 19.7.
Turning to “FVIIa variant CB637 K197E/K341Q (from UniProt P08709 61-466) (enzyme)”, the Binding (wt/variant) was 67.2 and the Dissociation (wt/variant) came out at 171.
The corresponding values for “FVIIa variant CB670 G237V/K341Q (from UniProt P08709 61-466) (enzyme)” are 12.8 and 12.4.
The like results for “FVIIa variant CB671 K197E/G237V/K341Q (from UniProt P08709 61-466) (enzyme)” were, in that order, 18.9 and 21.8.
Regarding “FVIIa variant CB688 K197E/K199E (from UniProt P08709 61-466) (enzyme)”, the Binding (wt/variant) is 2.2 and the Dissociation (wt/variant) turned out to be 2.1.
The corresponding values for “FVIIa variant CB689 K197E/G237V (from UniProt P08709 61-466) (enzyme)” are 1.8 and 1.6.
The like results for “FVIIa variant CB691 K197E/K199E/K341Q (from UniProt P08709 61-466) (enzyme)” were, in that order, 33.9 and 68.1.
The corresponding values for “FVIIa variant CB692 K197E/G237V/M298Q/K341Q (from UniProt P08709 61-466) (enzyme)” are 15.9 and 21.5.
In the case of “FVIIa variant CB693 K197E/K199E/G237V/M298Q/K341Q (from UniProt P08709 61-466) (enzyme)”, the Binding (wt/variant) came to 23.4 and the Dissociation (wt/variant) was 43.5.
The corresponding values for “FVIIa variant CB694 K199E/K341Q (from UniProt P08709 61-466) (enzyme)” are 18.8 and 30.7.
As for “FVIIa variant CB695 G237V/M298Q (from UniProt P08709 61-466) (enzyme)”, the Binding (wt/variant) was found to be 0.9 and the Dissociation (wt/variant) was determined as 0.8.
The corresponding values for “FVIIa variant CB696 G237V/M298Q/K341Q (from UniProt P08709 61-466) (enzyme)” are 4.5 and 6.
The corresponding values for “FVIIa variant CB697 R290N (from UniProt P08709 61-466) (enzyme)” are 1.6 and 1.5.
The corresponding values for “FVIIa variant CB698 R290Q (from UniProt P08709 61-466) (enzyme)” are 1.3 and 1.2.
In the case of “FVIIa variant CB699 R290K (from UniProt P08709 61-466) (enzyme)”, the Binding (wt/variant) amounted to 0.7 and the Dissociation (wt/variant) is 0.7.
On to “FVIIa variant CB700 R290M (from UniProt P08709 61-466) (enzyme)”, for which the Binding (wt/variant) stood at 1.1 and the Dissociation (wt/variant) was determined as 1.1.
With “FVIIa variant CB701 R290V (from UniProt P08709 61-466) (enzyme)”, the Binding (wt/variant) was determined as 2.6 and the Dissociation (wt/variant) was 2.7.
The corresponding values for “FVIIa variant CB733 K341N (from UniProt P08709 61-466) (enzyme)” are 11.3 and 63.8.
The like results for “FVIIa variant CB734 K341M (from UniProt P08709 61-466) (enzyme)” were, in that order, 4.9 and 5.4.
The corresponding values for “FVIIa variant CB735 K341D (from UniProt P08709 61-466) (enzyme)” are 186 and 381.
For “FVIIa variant CB902 K197E/M298Q (from UniProt P08709 61-466) (enzyme)”, the Binding (wt/variant) came to 2.6 and the Dissociation (wt/variant) was 2.3.
As to “FVIIa variant CB945 M298Q/K341D (from UniProt P08709 61-466) (enzyme)”, the Binding (wt/variant) worked out at 147 and the Dissociation (wt/variant) was 196.
In the case of “wild-type Factor VII polypeptide (CB553-02), activated (FVIIa) (from UniProt P08709 61-466) (enzyme)”, the Binding (wt/variant) is 1 and the Dissociation (wt/variant) came to 1.

The target is the same in a further experiment. Description: SPR (Biacore T100), TFPI on CM5 chip, 320 nM FVIIa + 620 nM sTF; BHK-21 cells. (Surface plasmon resonance follows binding to a sensor surface in real time, without labels.)
Regarding “FVIIa variant CB593 V158D/E296V/M298Q (from UniProt P08709 61-466) (enzyme)”, the Binding (wt/variant) was 1 and the Dissociation (wt/variant) came out at 1.
With “FVIIa variant CB853 G237T238insA (from UniProt P08709 61-466) (enzyme)”, the Binding (wt/variant) was determined as 6.5 and the Dissociation (wt/variant) came out at 18.2.
With “FVIIa variant CB854 G237T238insS (from UniProt P08709 61-466) (enzyme)”, the Binding (wt/variant) is 5.2.
Consider “FVIIa variant CB855 G237T238insV (from UniProt P08709 61-466) (enzyme)”, for which the Binding (wt/variant) worked out at 7.3 and the Dissociation (wt/variant) was determined as 16.8.
The like results for “FVIIa variant CB856 G237T238insAS (from UniProt P08709 61-466) (enzyme)” were, in that order, 22.8 and 154.
As to “FVIIa variant CB857 G237T238insSA (from UniProt P08709 61-466) (enzyme)”, the Binding (wt/variant) was 21.5 and the Dissociation (wt/variant) stood at 146.
The like results for “FVIIa variant CB858 D196K197insK (from UniProt P08709 61-466) (enzyme)” were, in that order, 1 and 0.8.
For the substance “FVIIa variant CB859 D196K197insR (from UniProt P08709 61-466) (enzyme)”, the Binding (wt/variant) turned out to be 0.5 and the Dissociation (wt/variant) was 0.5.
With “FVIIa variant CB862 D196K197insA (from UniProt P08709 61-466) (enzyme)”, the Binding (wt/variant) is 0.5 and the Dissociation (wt/variant) was determined as 0.4.
The corresponding values for “FVIIa variant CB863 D196K197insM (from UniProt P08709 61-466) (enzyme)” are 0.4 and 0.4.
In the case of “FVIIa variant CB864 K197I198insE (from UniProt P08709 61-466) (enzyme)”, the Binding (wt/variant) turned out to be 1.3 and the Dissociation (wt/variant) was 1.1.
As for “FVIIa variant CB865 K197I198insY (from UniProt P08709 61-466) (enzyme)”, the Binding (wt/variant) stood at 1.1 and the Dissociation (wt/variant) stood at 1.
For “FVIIa variant CB867 K197I198insS (from UniProt P08709 61-466) (enzyme)”, the Binding (wt/variant) was 0.7 and the Dissociation (wt/variant) was 0.6.
For the substance “wild-type Factor VII polypeptide (CB553-02), activated (FVIIa) (from UniProt P08709 61-466) (enzyme)”, the Binding (wt/variant) stood at 1 and the Dissociation (wt/variant) stood at 1.
